Experimental data as given in IntAct's records for PubMed 20030366.

Legend:
apoe_human APOE = apoe_human APOE (UniProt P02649)
amrp_human LRPAP1 [1] = molecular target: amrp_human LRPAP1 (UniProt P30533)
amrp_human LRPAP1 [2] = molecular target: amrp_human LRPAP1 (UniProt P30533); remark: listed apart in the source

amrp_human LRPAP1, sequence (P30533 whole entry): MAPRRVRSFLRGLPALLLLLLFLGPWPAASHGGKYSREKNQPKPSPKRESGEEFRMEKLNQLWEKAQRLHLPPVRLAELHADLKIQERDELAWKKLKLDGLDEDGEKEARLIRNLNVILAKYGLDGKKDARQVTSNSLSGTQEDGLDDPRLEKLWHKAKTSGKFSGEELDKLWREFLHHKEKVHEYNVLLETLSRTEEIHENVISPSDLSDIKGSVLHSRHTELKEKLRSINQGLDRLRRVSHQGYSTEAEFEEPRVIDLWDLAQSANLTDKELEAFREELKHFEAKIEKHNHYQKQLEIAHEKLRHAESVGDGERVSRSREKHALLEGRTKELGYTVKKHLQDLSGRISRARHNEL
apoe_human APOE, sequence (P02649 whole entry): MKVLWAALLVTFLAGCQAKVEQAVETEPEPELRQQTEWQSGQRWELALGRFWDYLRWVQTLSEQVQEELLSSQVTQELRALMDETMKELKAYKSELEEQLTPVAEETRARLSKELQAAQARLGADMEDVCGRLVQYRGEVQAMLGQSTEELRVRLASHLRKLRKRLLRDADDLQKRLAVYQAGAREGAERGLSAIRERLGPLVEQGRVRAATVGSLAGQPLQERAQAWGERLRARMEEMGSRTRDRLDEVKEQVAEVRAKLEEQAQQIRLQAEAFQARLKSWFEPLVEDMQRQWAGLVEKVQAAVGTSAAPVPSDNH

Substance	effect of a mutation on the interaction (apoe_human APOE)	effect of a mutation on the interaction (amrp_human LRPAP1 [1])	effect of a mutation on the interaction (amrp_human LRPAP1 [2])
Prolow-density lipoprotein receptor-related protein 1 (Homo sapiens), Q07954 D2797A	decreasing interaction strength	decreasing interaction strength	
Prolow-density lipoprotein receptor-related protein 1 (Homo sapiens), Q07954 D2797A;D2840A			decreasing interaction strength
